{"source": "paper PMC8000039", "about": "“Toxin-Activating Stapled Peptides Discovered by Structural Analysis Were Identified as New Therapeutic Candidates That Trigger Antibacterial Activity against Mycobacterium tuberculosis in the Mycobacterium smegmatis Model” (Microorganisms, 2021)", "key": {"[1]": {"tested_on": "VapBC26-expressing M. smegmatis mc2155 cells", "type": "cell-based, Mycobacterium smegmatis"}, "[2]": {"assay": "CD spectroscopy, helicity calculated by CDNN software", "type": "physicochemical", "settings": "50 μM peptide, 10 mM potassium phosphate pH 7, 100 mM ammonium sulfate, 20 °C, average of three scans", "procedure": "CD measurements were conducted at 20 °C using a Chirascan Plus spectropolarimeter (Applied Photophysics, Leatherhead, UK) in a cuvette with a 1 mm path length. The peptide samples were prepared at 50 μM in buffer consisting of 10 mM potassium phosphate (pH 7) and 100 mM ammonium sulfate. CD scans were taken from 180 nm to 260 nm at a speed of 100 nm/min with a 1 nm bandwidth. The helicity of each peptide was calculated by CDNN software."}, "[3]": {"tested_on": "VapBC26-harboring M. smegmatis", "assay": "Confocal microscopy of FITC-labeled peptides (cell permeability)", "type": "cell-based, Mycobacterium smegmatis", "settings": "FITC-labeled peptide 10 μM, 1 h, 37 °C, trypsin to degrade surface-bound and extracellular peptide, two independent experiments", "procedure": "Confocal microscopy was used to assess the permeability of M. smegmatis using FITC-labeled peptides. Cultures of M. smegmatis grown in complete 7H9 medium to mid-logarithmic phase (OD600 0.3–0.5) were diluted 5-fold with Muller-Hinton broth (BD Biosciences, Franklin Lakes, NJ, USA). Diluted cell suspensions were aliquoted into Eppendorf tubes and treated with 10 μM peptide. After 1 h of incubation at 37 °C and 100 rpm, the cell suspensions were washed with PBS. If successful internalization of FITC-labeled peptides is achieved, then fluorescence will be detected in the images. Surface-bound peptides and extracellular peptides were degraded by trypsin, and thus remained fluorescence signals in the images indicate the indeed internalization of peptide. Images were acquired on a TCS8 confocal scope (Leica Microsystems, Wetzlar, Germany) with a 63× oil immersion objective."}}}
{"substance": "VapC26 α4_54–65: linear α4-mimicking peptide of VapC26 (residues 54–65), from the authors' previous study (DAELAVLRELAG; UniProt O53779 54-65, looked up, fragment)", "values": [{"measurement": "effect on cell growth (OD600) compared with control cells", "setting": "[1]", "value": "only a slight effect"}, {"measurement": "Helicity (α-helical propensity)", "setting": "[2]", "value": 20.8, "unit": "%"}, {"measurement": "cell penetration / uptake, fluorescence signal inside the cells", "setting": "[3]", "value": "barely observed"}]}
